From PMC2645937

B1: E. coli ribonucleotide reductase large subunit α2 (enzyme)
chain: MNQNLLVTKRDGSTERINLDKIHRVLDWAAEGLHNVSISQVELRSHIQFYDGIKTSDIHETIIKAAADLISRDAPDYQYLAARLAIFHLRKKAYGQFEPPALYDHVVKMVEMGKYDNHLLEDYTEEEFKQMDTFIDHDRDMTFSYAAVKQLEGKYLVQNRVTGEIYESAQFLYILVAACLFSNYPRETRLQYVKRFYDAVSTFKISLPTPIMSGVRTPTRQFSSCVLIECGDSLDSINATSSAIVKYVSQRAGIGINAGRIRALGSPIRGGEAFHTGCIPFYKHFQTAVKSCSQGGVRGGAATLFYPMWHLEVESLLVLKNNRGVEGNRVRHMDYGVQINKLMYTRLLKGEDITLFSPSDVPGLYDAFFADQEEFERLYTKYEKDDSIRKQRVKAVELFSLMMQERASTGRIYIQNVDHCNTHSPFDPAIAPVRQSNLCLEIALPTKPLNDVNDENGEIALCTLSAFNLGAINNLDELEELAILAVRALDALLDYQDYPIPAAKRGAMGRRTLGIGVINFAYYLAKHGKRYSDGSANNLTHKTFEAIQYYLLKASNELAKEQGACPWFNETTYAKGILPIDTYKKDLDTIANEPLHYDWEALRESIKTHGLRNSTLSALMPSETSSQISNATNGIEPPRGYVSIKASKDGILRQVVPDYEHLHDAYELLWEMPGNDGYLQLVGIMQKFIDQSISANTNYDPSRFPSGKVPMQQLLKDLLTAYKFGVKTLYYQNTRDGAEDAQDDLVPSIQDDGCESGACKI

Tests used:
[1] = target: E. coli ribonucleotide reductase large subunit α2 (E. coli) (UniProt P00452); assay: cross-linking
[2] = target: ribonucleotide reductase β2 (Escherichia coli) (UniProt P69924); conditions: cited from earlier work
[3] = target: DAN-β2(V351C): (His)6-β2-C268S/C305S/V351C labelled with dimethylaminonaphthalene (E. coli); assay: other fluorescence titration

Molecule | percent cross-linked [1] | also measured
BP-β2(V365C): (His)6-β2-C268S/C305S/V365C labelled with benzophenone (enzyme) | 19% | –
BP-β2(Y356C): (His)6-β2-C268S/C305S/Y356C labelled with benzophenone (enzyme) | 9% | –
ribonucleotide reductase α2 (from UniProt P00452) | – | Kd [2]: 200 nM
B1 | – | Kd [3]: 380 nM
